Reference: patent publication US20100034826A1 (Bristol-Myers Squibb, published 2010)

Legend:
[1] = biological target: T1, human PTK7, full length, on the cell surface (human, UniProt Q13308 31-1070); assay: flow cytometry on Wilms' tumor G-401 cells, antibody from 30 µg/ml in 1:10 dilutions
T1 construct: also called CCK4; protein tyrosine kinase 7
T1 sequence: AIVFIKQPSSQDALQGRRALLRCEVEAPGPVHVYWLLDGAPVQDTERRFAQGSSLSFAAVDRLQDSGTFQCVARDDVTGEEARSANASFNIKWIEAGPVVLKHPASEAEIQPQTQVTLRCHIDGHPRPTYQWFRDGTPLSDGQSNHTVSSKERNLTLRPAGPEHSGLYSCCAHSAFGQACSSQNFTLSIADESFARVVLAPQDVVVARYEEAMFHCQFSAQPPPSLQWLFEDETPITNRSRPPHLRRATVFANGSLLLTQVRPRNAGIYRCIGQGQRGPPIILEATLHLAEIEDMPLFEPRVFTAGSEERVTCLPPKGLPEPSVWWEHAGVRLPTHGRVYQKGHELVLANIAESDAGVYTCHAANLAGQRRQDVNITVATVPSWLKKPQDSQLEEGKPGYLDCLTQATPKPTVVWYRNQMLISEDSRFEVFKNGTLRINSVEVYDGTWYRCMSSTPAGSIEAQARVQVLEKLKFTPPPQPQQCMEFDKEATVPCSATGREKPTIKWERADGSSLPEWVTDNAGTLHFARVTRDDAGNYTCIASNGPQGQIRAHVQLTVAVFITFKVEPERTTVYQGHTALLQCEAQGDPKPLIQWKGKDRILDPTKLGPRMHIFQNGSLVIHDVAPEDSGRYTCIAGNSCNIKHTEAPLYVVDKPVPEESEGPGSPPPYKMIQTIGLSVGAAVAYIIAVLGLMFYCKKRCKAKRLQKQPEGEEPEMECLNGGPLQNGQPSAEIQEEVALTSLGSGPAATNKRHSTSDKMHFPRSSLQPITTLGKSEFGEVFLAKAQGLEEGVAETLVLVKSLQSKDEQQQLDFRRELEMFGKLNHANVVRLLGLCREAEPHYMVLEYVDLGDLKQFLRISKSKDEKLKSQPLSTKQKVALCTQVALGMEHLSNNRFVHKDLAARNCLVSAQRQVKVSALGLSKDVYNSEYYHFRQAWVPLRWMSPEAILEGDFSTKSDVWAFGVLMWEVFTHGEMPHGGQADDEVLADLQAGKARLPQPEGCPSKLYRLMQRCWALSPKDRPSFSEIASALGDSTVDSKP
Method: The nephroblastoma Wilms' tumor cell line G-401 (ATCC Acc No. CRL-1441) was tested for binding of the HuMAb anti-PTK7 human monoclonal antibodies 12C6 and 7C8 at different concentrations. Binding of the anti-PTK7 human monoclonal antibodies was assessed by incubating 1×10⁵ cells with antibody at a starting concentration of 30 μg/ml and serially diluting the antibody at a 1:10 dilution. The cells were washed and binding was detected with a PE-labeled anti-human IgG Ab. Flow cytometric analyses were performed using a FACScan flow cytometry (Becton Dickinson, San Jose, Calif.). The anti-PTK7 monoclonal antibodies 12C6 and 7C8 bound to the nephroblastoma Wilms' tumor cell line in a concentration dependent manner, as measured by the mean fluorescent intensity (MFI) of staining.

[2] = biological target: T2, recombinant extracellular domain of PTK7 (human, UniProt Q13308 31-704); assay: ELISA on recombinant PTK7 extracellular domain, HRP anti-human IgG (kappa) detection
T2 construct: also called PTK7 extracellular domain
T2 sequence: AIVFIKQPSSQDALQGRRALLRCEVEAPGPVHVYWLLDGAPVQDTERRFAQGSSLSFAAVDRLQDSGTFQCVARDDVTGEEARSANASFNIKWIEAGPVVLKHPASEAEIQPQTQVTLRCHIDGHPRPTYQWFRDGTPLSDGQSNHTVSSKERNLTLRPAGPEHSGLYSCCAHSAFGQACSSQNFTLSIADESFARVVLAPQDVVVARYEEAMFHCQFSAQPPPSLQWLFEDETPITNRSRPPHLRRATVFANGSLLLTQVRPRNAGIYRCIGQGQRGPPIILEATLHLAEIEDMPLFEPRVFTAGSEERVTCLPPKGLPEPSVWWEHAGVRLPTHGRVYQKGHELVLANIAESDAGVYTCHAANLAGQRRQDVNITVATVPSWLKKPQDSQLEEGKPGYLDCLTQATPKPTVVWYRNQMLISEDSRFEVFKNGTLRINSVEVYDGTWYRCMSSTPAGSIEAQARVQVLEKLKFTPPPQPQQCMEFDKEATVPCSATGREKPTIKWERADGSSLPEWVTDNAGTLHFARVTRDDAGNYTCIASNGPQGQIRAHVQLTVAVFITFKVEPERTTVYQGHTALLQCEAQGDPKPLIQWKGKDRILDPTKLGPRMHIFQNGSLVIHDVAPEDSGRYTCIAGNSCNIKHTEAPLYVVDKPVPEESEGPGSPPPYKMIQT
Method: (§1) Recombinant extracellular domain of PTK7 was tested for binding against the anti-PTK7 human monoclonal antibodies 3G8, 4D5, 12C6 and 12C6a at different concentrations. Standard ELISA procedures were performed. The anti-PTK7 human monoclonal antibodies were added at a starting concentration of 10 μg/ml and serially diluted at a 1:2 dilution. Goat-anti-human IgG (kappa chain-specific) polyclonal antibody conjugated with horseradish peroxidase (HRP) was used as secondary antibody. Each of the anti-PTK7 human monoclonal antibodies 3G8, 4D5, 12C6 and 12C6a bound to PTK7.

[3] = biological target: T1, human PTK7, full length, on the cell …; assay: cell-based or functional assay
[4] = biological target: T1, human PTK7, full length, on the cell …; assay: flow cytometry on cancer cell lines that express cell surface PTK7, antibody at 10 µg/ml, MFI
Method: Binding of the 3G8, 12C6a, 4D5 and 12C6 anti-PTK7 human monoclonal antibodies to a panel of cancer cell lines was assessed by incubating cancer cell lines with anti-PTK7 human monoclonal antibodies at a concentration of 10 μg/ml. […] An isotype control antibody was used as a negative control. The cells were washed and binding was detected with a FITC-labeled anti-human IgG Ab. Flow cytometric analyses were performed using a FACScan flow cytometry (Becton Dickinson, San Jose, Calif.).

[5] = biological target: T2, recombinant extracellular domain of PTK7; assay: ELISA on recombinant extracellular domain of PTK7, antibody from 10 µg/ml in 1:2 dilutions
Method: as §1

B1: anti-PTK7 human monoclonal antibody 12C6 (antibody, V domains shown)
VH: EVQLVQSGGGLVHPGGSLRLSCAGSGFTFSTYLMYWVRQAPGKTLEWVSAIGSGGDTYYADSVKGRFTISRDNAKNSLYLQMNSLRAEDMAVYYCARGLGYWGQGTLVTVSS
VL: not shown
notes: Human IgG with kappa light chain, made by a hybridoma
EC50 [1]: 4.04 nM
EC50 (read off the curve) [2]: ~0.6 µg/mL
EC50, Hum-Zap internalization assay (3H-thymidine incorporation), A-431 cells [3]: 166 nM
EC50, Hum-Zap internalization assay (3H-thymidine incorporation), PC3 tumor cells [3]: 0.318 nM
EC50, Hum-Zap internalization assay (3H-thymidine incorporation), Wilms' tumor cells [3]: 0.205 nM

B2: anti-PTK7 human monoclonal antibody 7C8 (antibody, V domains shown)
VH: QVQLVESGGGVVQPGRSLRLSCAASGFTFSSYGMHWVRQAPGKGLEWVAVIWDDGSNKYYVDSVKGRFTISRDNSKNTLYLQMNSLRAEDTAVYYCARDDYYGSGSFNSYYGTDVWGQGTTVTVSS
VL: EIVLTQSPATLSLSPGERATLSCRASQSVSIYLAWYQQKPGQAPRLLIYDASNRATGIPARFSGSGSGTDFTLTISSLEPEDFAVYYCQQRSNWPPFTFGPGTKVDIK
notes: Human IgG with kappa light chain, made by a hybridoma; also called 7CS
EC50 [1]: 3.43 nM
EC50, Hum-Zap internalization assay (3H-thymidine incorporation), A-431 cells [3]: 0.183 nM
EC50, Hum-Zap internalization assay (3H-thymidine incorporation), PC3 tumor cells [3]: 0.265 nM
EC50, Hum-Zap internalization assay (3H-thymidine incorporation), Wilms' tumor cells [3]: 0.179 nM

B3: anti-PTK7 human monoclonal antibody 3G8 (antibody, V domains shown)
VH: QVQLVESGGGVVQPGRSLRLSCAASGFIFSNYAMHWVRQAPGKGLEWVAVISYDGNNKYYADSVKGRFTISRDNSKNTLYLQMNSLRAEDTAVYYCAREVWSIDNWGQGTLVTVSS
VL: DIQMTQSPSSLSASVGDRVTITCRASQGISSWLAWYQQKPEKAPKSLIYAASSLQSGVPSRFSGSGSGTDFTLTISSLQPEDFATYYCQQYNSYPRTFGQGTKVEIK
EC50, Hum-Zap internalization assay (3H-thymidine incorporation), Wilms' tumor cells [3]: 0.644 nM

B4: anti-PTK7 human monoclonal antibody 12C6a (antibody, V domains shown)
VH: EVQLVQSGGGLVHPGGSLRLSCAGSGFTFSTYLMYWVRQAPGKTLEWVSAIGSGGDTYYADSVKGRFTISRDNAKNSLYLQMNSLRAEDMAVYYCARGLGYWGQGTLVTVSS
VL: DIQMTQSPSSLSASVGDRVTITCRASQGISSWLAWYQQKPEKAPKSLIYAASSLQSGVPSRFSGSGSGTDFTLTISSLQPEDFATYYCQQYNSYPYTFGQGTKLEIK
notes: Human IgG with kappa light chain, made by a hybridoma; Same VH as 12C6
binding result [4]: binds
binding result [5]: binds

B5: anti-PTK7 human monoclonal antibody 4D5 (antibody, V domains shown)
VH: QVQLVESGGGVVQPGRSLRLSCAASGFTFSSYAFHWVRQAPGKGLEWVAVISYDGSIKYYADSVKGRFTISRDNSKNTLYLQMNSLRAEDTAVYYCARTYYFDYWGQGTLVTVSS
VL: EIVLTQSPDFQSVTPKEKVTITCRASQSIGSSLHWYQQKPDQSPKLLIKYASQSFSGVPSRFSGSGSGTDFTLTINSLEAEDAAAYYCHQSSSLPITFGQGTRLEIK
EC50, Hum-Zap internalization assay (3H-thymidine incorporation), Wilms' tumor cells [3]: 0.252 nM
